EC50 data for 13 molecules are collected here from patent US20140161804A1 (AbbVie / Abbott, published 2014).

B1: hMAK195-21-h10F7-A11.8 DVD-Ig (bispecific antibody, human IgG1, kappa, L234A L235A)
heavy: not shown
light: DIQMTQSPSSLSASVGDRVTITCRASQLVSSAVAWYQQKPGKAPKLLIYWASARHTGVPSRFSGSGSGTDFTLTISSLQPEDFATYYCQQHYKTPFTFGQGTKLEIKRGGSGGGGSGDIQMTQSPSSLSASVGDRVTITCRASSGIISYIDWFQQKPGKAPKRLIYATFDLASGVPSRFSGSGSGTDYTLTISSLQPEDFATYYCRQVGSYPETFGQGTKLEIKRTVAAPSVFIFPPSDEQLKSGTASVVCLLNNFYPREAKVQWKVDNALQSGNSQESVTEQDSKDSTYSLSSTLTLSKADYEKHKVYACEVTHQGLSSPVTKSFNRGEC
notes: DVD-Ig; IgG1 234,235 mut, kappa; GS10 linkers; light chain shared with the M11 DVD-Ig; also called hMAK195-21-GS10-A11 DVD
B2: hMAK195-21-h10F7-A6.8 DVD-Ig (bispecific antibody, human IgG1, kappa, L234A L235A)
heavy: not shown
light: B1 light with R141S, S144Q, I147R, A160S, S210N, E213G
notes: DVD-Ig; IgG1 234,235 mut, kappa; GS10 linkers; also called hMAK195-21-GS10-A6 DVD
B3: hMAK195-21-h10F7-M10.8 DVD-Ig (bispecific antibody, human IgG1, kappa, L234A L235A)
heavy: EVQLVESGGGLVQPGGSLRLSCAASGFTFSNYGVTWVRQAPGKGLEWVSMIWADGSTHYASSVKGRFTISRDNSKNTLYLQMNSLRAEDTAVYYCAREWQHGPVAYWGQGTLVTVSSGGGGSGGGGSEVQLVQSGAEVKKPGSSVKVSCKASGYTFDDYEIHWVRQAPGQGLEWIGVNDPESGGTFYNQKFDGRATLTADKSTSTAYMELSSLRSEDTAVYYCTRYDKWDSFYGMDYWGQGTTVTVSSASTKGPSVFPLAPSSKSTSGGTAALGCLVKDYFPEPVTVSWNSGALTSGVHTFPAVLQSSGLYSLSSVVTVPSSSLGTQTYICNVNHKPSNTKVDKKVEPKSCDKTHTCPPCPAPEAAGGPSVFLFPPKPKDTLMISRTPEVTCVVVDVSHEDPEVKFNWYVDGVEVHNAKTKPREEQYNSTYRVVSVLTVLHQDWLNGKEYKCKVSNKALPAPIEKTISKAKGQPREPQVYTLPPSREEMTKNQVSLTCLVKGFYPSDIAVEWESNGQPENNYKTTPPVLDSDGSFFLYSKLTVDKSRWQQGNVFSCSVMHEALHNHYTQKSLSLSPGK
light: B1 light with R141S, I146S, D170E, Y188F, R206H, V208L, E213D
notes: DVD-Ig; IgG1 234,235 mut, kappa; GS10 linkers; also called hMAK195-21-GS10-M10 DVD
B4: hMAK195-24-h10F7-A6.8 DVD-Ig (bispecific antibody, human IgG1, kappa, L234A L235A)
heavy: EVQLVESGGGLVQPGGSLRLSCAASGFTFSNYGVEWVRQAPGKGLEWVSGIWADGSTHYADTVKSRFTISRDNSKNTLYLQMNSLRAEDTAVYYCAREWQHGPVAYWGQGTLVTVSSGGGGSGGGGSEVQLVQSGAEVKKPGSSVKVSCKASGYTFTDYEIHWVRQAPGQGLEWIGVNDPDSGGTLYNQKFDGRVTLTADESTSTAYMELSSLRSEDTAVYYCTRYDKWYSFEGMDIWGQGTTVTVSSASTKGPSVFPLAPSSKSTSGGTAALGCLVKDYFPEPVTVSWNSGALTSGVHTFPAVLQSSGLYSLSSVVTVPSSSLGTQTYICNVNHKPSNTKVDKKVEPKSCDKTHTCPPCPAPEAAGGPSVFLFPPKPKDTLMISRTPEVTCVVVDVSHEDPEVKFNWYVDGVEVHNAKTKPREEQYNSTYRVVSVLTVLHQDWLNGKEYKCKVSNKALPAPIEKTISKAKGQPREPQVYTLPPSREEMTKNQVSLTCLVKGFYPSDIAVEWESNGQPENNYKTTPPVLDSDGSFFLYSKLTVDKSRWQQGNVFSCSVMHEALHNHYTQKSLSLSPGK
light: B1 light with R24K, A53T, R54L, K93R, R141S, S144Q, I147R, A160S, S210N, E213G
notes: DVD-Ig; IgG1 234,235 mut, kappa; GS10 linkers; also called hMAK195-24-GS10-A6 DVD
B5: hMAK195-24-h10F7-A16.8 DVD-Ig (bispecific antibody, human IgG1, kappa, L234A L235A)
heavy: not shown
light: B1 light with R24K, A53T, R54L, K93R, R141S, S144Q, I147R, A160S, S210N, E213G
notes: DVD-Ig; IgG1 234,235 mut, kappa; GS10 linkers; light chain shared with the A6 DVD-Ig; also called hMAK195-24-GS10-A16 DVD
B6: hMAK195-24-h10F7-A11.8 DVD-Ig (bispecific antibody, human IgG1, kappa, L234A L235A)
heavy: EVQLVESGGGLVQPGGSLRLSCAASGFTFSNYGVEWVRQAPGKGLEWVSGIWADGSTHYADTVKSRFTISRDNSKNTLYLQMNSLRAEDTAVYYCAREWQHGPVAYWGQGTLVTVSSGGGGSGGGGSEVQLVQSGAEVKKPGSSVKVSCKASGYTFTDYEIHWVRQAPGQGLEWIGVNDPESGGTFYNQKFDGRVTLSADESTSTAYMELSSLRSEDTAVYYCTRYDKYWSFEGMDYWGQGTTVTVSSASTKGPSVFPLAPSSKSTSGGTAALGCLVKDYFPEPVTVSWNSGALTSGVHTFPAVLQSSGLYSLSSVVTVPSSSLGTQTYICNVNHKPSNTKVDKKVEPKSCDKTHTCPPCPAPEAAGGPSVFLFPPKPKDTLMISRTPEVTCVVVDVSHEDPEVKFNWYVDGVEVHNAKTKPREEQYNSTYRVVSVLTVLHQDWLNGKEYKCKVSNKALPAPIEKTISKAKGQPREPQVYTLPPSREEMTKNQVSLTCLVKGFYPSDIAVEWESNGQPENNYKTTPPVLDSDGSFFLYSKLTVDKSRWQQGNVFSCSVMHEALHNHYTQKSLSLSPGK
light: B1 light with R24K, A53T, R54L, K93R
notes: DVD-Ig; IgG1 234,235 mut, kappa; GS10 linkers; also called hMAK195-24-GS10-A11 DVD
B7: hMAK195-21-h10F7-A16.8 DVD-Ig (bispecific antibody, human IgG1, kappa, L234A L235A)
heavy: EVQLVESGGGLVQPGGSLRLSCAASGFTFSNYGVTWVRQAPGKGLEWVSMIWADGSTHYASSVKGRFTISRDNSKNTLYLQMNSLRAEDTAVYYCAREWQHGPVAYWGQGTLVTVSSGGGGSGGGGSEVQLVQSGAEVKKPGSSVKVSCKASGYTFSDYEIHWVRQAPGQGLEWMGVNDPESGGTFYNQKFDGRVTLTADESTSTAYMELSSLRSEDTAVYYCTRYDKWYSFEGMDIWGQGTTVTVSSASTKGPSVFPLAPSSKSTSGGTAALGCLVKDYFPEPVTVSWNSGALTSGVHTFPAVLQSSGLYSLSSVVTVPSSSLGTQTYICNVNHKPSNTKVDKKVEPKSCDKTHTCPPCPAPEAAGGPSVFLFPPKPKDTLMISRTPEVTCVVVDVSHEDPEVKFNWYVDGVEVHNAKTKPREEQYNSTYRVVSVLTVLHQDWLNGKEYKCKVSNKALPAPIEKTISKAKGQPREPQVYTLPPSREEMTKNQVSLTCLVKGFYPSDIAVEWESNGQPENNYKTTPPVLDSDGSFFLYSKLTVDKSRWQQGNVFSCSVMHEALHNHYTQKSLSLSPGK
light: B1 light with R141S, S144Q, I147R, A160S, S210N, E213G
notes: DVD-Ig; IgG1 234,235 mut, kappa; GS10 linkers; light chain shared with the A6 DVD-Ig; also called ShMAK195-21-h10F7-A16.8 DVD-Ig; hMAK195-21-GS10-A16 DVD
B8: hMAK195-21-h10F7-B13.8 DVD-Ig (bispecific antibody, human IgG1, kappa, L234A L235A)
heavy: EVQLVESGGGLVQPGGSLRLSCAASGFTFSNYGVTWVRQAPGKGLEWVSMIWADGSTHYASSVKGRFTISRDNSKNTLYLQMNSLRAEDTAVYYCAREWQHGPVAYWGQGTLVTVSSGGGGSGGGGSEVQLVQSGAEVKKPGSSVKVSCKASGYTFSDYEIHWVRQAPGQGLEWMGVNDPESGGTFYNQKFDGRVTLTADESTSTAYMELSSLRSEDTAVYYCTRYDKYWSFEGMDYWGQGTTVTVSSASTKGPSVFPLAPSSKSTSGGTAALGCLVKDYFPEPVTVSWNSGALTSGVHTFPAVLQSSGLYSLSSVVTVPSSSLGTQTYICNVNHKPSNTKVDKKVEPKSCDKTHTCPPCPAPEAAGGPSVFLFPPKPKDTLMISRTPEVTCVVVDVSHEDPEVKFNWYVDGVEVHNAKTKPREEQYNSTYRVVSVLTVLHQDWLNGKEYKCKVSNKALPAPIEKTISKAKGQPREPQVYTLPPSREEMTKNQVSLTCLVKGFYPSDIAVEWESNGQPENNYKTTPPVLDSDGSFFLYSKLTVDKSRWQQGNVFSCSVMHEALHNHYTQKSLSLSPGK
light: B1 light
notes: DVD-Ig; IgG1 234,235 mut, kappa; GS10 linkers; light chain shared with the M11 DVD-Ig; also called hMAK195-21-GS10-B13 DVD
B9: hMAK195-21-h10F7-B20.8 DVD-Ig (bispecific antibody, human IgG1, kappa, L234A L235A)
heavy: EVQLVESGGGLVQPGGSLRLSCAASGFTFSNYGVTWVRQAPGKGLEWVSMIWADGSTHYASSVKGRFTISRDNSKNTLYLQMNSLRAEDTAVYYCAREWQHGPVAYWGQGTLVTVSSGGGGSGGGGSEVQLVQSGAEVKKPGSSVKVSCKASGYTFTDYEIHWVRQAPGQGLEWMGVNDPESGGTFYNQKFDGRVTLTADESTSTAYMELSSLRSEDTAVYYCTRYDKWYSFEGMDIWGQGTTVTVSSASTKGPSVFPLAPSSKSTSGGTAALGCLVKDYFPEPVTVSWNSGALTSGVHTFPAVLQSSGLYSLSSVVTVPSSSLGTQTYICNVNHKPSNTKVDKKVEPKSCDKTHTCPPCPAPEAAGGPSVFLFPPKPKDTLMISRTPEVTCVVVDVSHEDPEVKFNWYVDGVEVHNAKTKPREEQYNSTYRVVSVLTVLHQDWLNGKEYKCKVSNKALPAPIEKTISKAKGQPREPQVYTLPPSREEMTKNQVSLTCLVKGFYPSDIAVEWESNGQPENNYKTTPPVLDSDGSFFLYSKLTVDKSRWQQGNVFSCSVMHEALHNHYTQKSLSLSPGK
light: B1 light
notes: DVD-Ig; IgG1 234,235 mut, kappa; GS10 linkers; light chain shared with the M11 DVD-Ig; also called hMAK195-21-GS10-B20 DVD
B10: hMAK195-24-h10F7-M10.8 DVD-Ig (bispecific antibody, human IgG1, kappa, L234A L235A)
heavy: not shown
light: DIQMTQSPSSLSASVGDRVTITCKASQLVSSAVAWYQQKPGKAPKLLIYWASTLHTGVPSRFSGSGSGTDFTLTISSLQPEDFATYYCQQHYRTPFTFGQGTKLEIKRGGSGGGGSGDIQMTQSPSSLSASVGDRVTITCSASSGSISYIDWFQQKPGKAPKRLIYATFELASGVPSRFSGSGSGTDFTLTISSLQPEDFATYYCHQLGSYPDTFGQGTKLEIKRTVAAPSVFIFPPSDEQLKSGTASVVCLLNNFYPREAKVQWKVDNALQSGNSQESVTEQDSKDSTYSLSSTLTLSKADYEKHKVYACEVTHQGLSSPVTKSFNRGEC
notes: DVD-Ig; IgG1 234,235 mut, kappa; GS10 linkers; also called hMAK195-24-GS10-M10 DVD
B11: hMAK199-10-h10F7-M10.8 DVD-Ig (bispecific antibody, human IgG1, kappa, L234A L235A)
heavy: not shown
light: DIQMTQSPSSLSASVGDRVTITCRASQDISNFLNWYQQKPGKAPKLLIYYTSRLQSGVPSRFSGSGSGTDYTLTISSLQPEDFATYFCQQGNTQPPTFGQGTKLEIKRGGSGGGGSGDIQMTQSPSSLSASVGDRVTITCSASSGSISYIDWFQQKPGKAPKRLIYATFELASGVPSRFSGSGSGTDFTLTISSLQPEDFATYYCHQLGSYPDTFGQGTKLEIKRTVAAPSVFIFPPSDEQLKSGTASVVCLLNNFYPREAKVQWKVDNALQSGNSQESVTEQDSKDSTYSLSSTLTLSKADYEKHKVYACEVTHQGLSSPVTKSFNRGEC
notes: DVD-Ig; IgG1 234,235 mut, kappa; GS10 linkers; also called HMAK199-10-GS10-H10F7-M10 DVD
B12: hMAK199-6-h10F7-M10.8 DVD-Ig (bispecific antibody, human IgG1, kappa, L234A L235A)
heavy: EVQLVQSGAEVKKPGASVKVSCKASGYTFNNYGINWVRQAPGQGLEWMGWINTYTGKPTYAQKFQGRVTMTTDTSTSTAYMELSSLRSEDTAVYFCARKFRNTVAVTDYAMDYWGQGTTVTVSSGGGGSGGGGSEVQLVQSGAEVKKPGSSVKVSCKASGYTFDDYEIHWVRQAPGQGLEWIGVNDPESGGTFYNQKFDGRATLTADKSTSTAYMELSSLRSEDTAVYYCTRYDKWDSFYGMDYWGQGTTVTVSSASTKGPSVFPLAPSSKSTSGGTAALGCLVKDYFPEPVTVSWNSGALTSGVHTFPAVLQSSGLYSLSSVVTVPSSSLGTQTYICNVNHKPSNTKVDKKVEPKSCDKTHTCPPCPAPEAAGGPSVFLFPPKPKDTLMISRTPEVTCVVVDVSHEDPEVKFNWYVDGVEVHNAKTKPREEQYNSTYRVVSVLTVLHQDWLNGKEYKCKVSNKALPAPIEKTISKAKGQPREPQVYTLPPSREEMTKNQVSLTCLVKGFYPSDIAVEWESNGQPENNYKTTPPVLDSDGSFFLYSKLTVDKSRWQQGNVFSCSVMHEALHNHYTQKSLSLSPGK
light: B11 light with S30Y, N31D, F32V, T51A, Y71F, F87Y, N92I, Q94L
notes: DVD-Ig; IgG1 234,235 mut, kappa; GS10 linkers; also called HMAK199-6-GS10-H10F7-M10 DVD
B13: hMAK199-10-h10F7-M11.8 DVD-Ig (bispecific antibody, human IgG1, kappa, L234A L235A)
heavy: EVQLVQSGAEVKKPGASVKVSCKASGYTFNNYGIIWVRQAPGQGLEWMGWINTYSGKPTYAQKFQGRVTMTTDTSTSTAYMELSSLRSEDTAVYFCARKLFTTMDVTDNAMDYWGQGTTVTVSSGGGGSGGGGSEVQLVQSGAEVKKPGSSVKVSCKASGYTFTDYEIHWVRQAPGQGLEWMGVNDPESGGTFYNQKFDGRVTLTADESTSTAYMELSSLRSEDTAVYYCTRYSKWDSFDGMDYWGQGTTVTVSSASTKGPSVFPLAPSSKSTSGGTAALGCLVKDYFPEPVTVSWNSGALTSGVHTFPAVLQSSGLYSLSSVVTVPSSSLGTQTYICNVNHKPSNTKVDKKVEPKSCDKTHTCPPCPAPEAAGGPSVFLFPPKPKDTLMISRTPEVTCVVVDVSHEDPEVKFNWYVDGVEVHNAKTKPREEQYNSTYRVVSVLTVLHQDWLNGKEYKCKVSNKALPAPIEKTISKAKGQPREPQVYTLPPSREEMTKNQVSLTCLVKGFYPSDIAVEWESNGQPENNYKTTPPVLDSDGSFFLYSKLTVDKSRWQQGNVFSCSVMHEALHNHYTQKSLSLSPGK
light: B11 light with S141R, S146I, E170D, F188Y, H206R, L208V, D213E
notes: DVD-Ig; IgG1 234,235 mut, kappa; GS10 linkers; also called HMAK199-10-GS10-H10F7-M11 DVD

Substitutions are numbered along the chain they refer to.

For this experiment, the target named is T1, Human IL-17A (human, UniProt Q16552 20-155, limits assumed).
T1 construct: Biotinylated in the ELISAs; purified recombinant protein in SPR; also called hIL17A; hIL-17
T1 sequence (Q16552 20-155 limits assumed): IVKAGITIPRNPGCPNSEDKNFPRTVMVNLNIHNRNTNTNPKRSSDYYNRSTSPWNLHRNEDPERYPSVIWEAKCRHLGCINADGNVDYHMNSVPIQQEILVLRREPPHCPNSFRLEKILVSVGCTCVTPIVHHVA
Briefly: ELISA, captured DVD-Ig, biotin-human IL-17 titrated. How it is done: The following protocol is used to characterize the binding of TNF/IL-17 DVD-Ig proteins to human TNF and IL-17 by enzyme-linked immunosorbent assay (ELISA). An ELISA plate was coated with 50 μl per well of goat anti mouse IgG-Fc at 2 μg/ml, overnight at 4° C. The plate was washed 3 times with PBS/Tween. 50 μl Mab diluted to 1 μg/ml in PBS/0.1% BSA was added to appropriate wells and incubated for 1 hour at room temperature (RT). The plate was washed 3 times with PBS/Tween. 50 μl of serial diluted biotin-human TNF or IL-17 was added to appropriate wells and incubated for 1 hour at RT. The plate was washed 3 times with PBS/Tween. 50 μl of streptavidin-HRP diluted 1:10,000 in PBS/0.1% BSA was added to appropriate wells and incubated for 1 hour at RT. The plate was washed 3 times with PBS/Tween. 50 μl of TMB was added to appropriate wells and the reaction allowed to proceed for 1 minute. The reaction was stopped with 50 μl/well 2N H₂SO₄ and the absorbance read at 450 nm.
The EC50 is the concentration that produces a half-maximal response. In turn, B1 returned an EC50 of 0.3 nM. The value for B2 was 0.13 nM. B3 showed an EC50 of 0.1 nM. To B4 belongs 0.188 nM. To B5 belongs 0.093 nM; to B6, 0.295 nM; to B7, 0.23 nM. To B8 belongs 0.2 nM; to B9, 0.242 nM; to B10, 0.1 nM.

Consider B11, for which a half-maximal response (EC50) required 0.079 nM. To B12 belongs 0.163 nM. The value for B13 was 0.133 nM.
